For the test, the target named is Trastuzumab. In words: SPR; antibody constructs immobilised on a Protein L Series S CM5 chip, increasing concentrations of Fc receptor flushed; Biacore 8K+, 25 °C, neutral pH; steady state affinity model. The settings on record: remark: other sources report otherwise.

B1: human FcγRIIa ECD, P12318 34-217 (receptor)
chain: QAAAPPKAVLKLEPPWINVLQEDSVTLTCQGARSPESDSIQWFHNGNLIPTHTQPSYRFKANNNDSGEYTCQTGQTSLSDPVHLTVLSEWLVLQTPHLEFQEGETIMLRCHSWKDKPLVKVTFFQNGKSQKFSHLDPTFSIPQANHSHSGDYHCTGNIGYTLFSSKPVTITVQVPSMGSSSPMG
A word on the Kd: it is the constant that tells how readily two partners part at equilibrium. High values mean lower affinity, low ones higher affinity. Molecule B1 displayed a Kd of 543 nM.

These data come from publication PMC10917784.
